We go through 69 sequences from the domain aggregation screens of Martell et al. (2025).

The data set is described as follows: soluble fraction after stress (log2 fold change); higher = more stays soluble; pooled small domains, quantitative proteomics. The following applies: stress: pH 4. The method, boiled down:
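How much of each domain stays soluble after acid stress, expressed as a fold change, is used to gauge aggregation propensity. Pooled custom libraries of small domains underwent pH 4 stress before high-throughput quantitative proteomics. A higher log2 value means more of the domain stayed soluble.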
In the case of “HMSSQVFLGQKNSIAKYDLNENKPIWTKEIKGTPLILSTWKDMLLIQIQTWVSYTHMLVKQENGQTVWE”, the “soluble fraction (log2)” value was determined as 0.282.

For the sequence “HMSSRLEIEITSKIDDLSHTWRAVGAKQPKGNIKSSLLPSGVKVGETFRVEADFLLDGIEIVSVLPP”, the “soluble fraction (log2)” value is -1.52.

For “HMSSSLDQLTVREREILAQVSRGLSNKAIARELGISHDTVKLHVRHILSKLGFSSRVEAAVFAIEHRIG”, the “soluble fraction (log2)” value was -0.481.

Consider “HMSSSMDAIAEIIRSIPRGDHLTAPEVYELAKQRGLKLSLSTVYRTLNKLKVVGDVITVSGDRGLRYESV”, for which the “soluble fraction (log2)” value was found to be 0.215.

With “HMSSTPEPPQAVLDLVNLREQARAGKDWTQSDAFRQQIAALGWTVKDTKDGPVVSLSPTTTE”, the “soluble fraction (log2)” value was 0.105.

For the sequence “HMSSTSTMTVAEATIGRKVKHDKFGEGTIITVADVNGDKKLTIAFNQQGVKMLMLSMAKLEL”, the “soluble fraction (log2)” value is -1.05.

For the sequence “HMSSVEVWINGKSSGLTSDNRAQILQQLPAESIERIEVIDNPSAKFSAEGSAGIINIVLKKD”, the “soluble fraction (log2)” value was -0.177.

As to “HMSSVRDNGDLELVPGDRIRHDDYGEGRVTAVTGVGSKRIAHAVFDSVGERKLLIKLSPIEKI”, the “soluble fraction (log2)” value stood at 0.235.

As for “HMSSWMTKDGKIKPISKWAGVPMTSQQQADYAAGKVVELTNIPDKQGQLNTVYLKFNPEKQRPTTSLNDPR”, the “soluble fraction (log2)” value is 0.22.

On to “HMSSYETVTLNGQRYFKYKVKSGEGLYAISRMFSTPIAEIIRHNPSSNAGLKNGQELLIPVN”, for which the “soluble fraction (log2)” value was -0.0689.

“HMSSYMQMQLERLESLLQKNDLTDSDKYDIRQLVEDLDKVPESVSPNLVGAYMTIKNRYASVLKTVL”: the “soluble fraction (log2)” value is -0.835.

In the case of “HMSTANISIEQAKEIALNHANLTSNQVIFSRTELDYDNGIQKYEVEFYYNNREYSYEINANTGDILGYEQ”, the “soluble fraction (log2)” value was -0.417.

“HMSTANIVVPDVKGKTFEEAKKAIEAEGLTAKAEGDESGVVQKTSPSYGVSVESGSEVTLTLVKSDD”: the “soluble fraction (log2)” value is 0.0493.

With “HMSTDNINYKNILIASLLIHAAKIDENYTENEKNIIKKALIELDEIDSKKADEIMILAEKKE”, the “soluble fraction (log2)” value is -0.271.

For “HMSTGYEMVREVANQGSFSKAANSLGVSGPAVSKQVKSLEERLGLVLFHRTTRAVSLTQAGRQLVDVLN”, the “soluble fraction (log2)” value is -0.036.

For “HMSTIKEKIIQYLDFKGISKYDFYQKTGVSNGVLSQKSGMSEDNIMRFLSYYDDINTDWLFYGKGEMIKT”, the “soluble fraction (log2)” value is -1.37.

Consider “HMSTKLLEVNIFDDSKWVNKTIMDSDIPEDILIVMIKRGDEVIVPKGSTIINKGDILVLSANNFDNLLN”, for which the “soluble fraction (log2)” value was -1.97.

For “HMSTMTEQEAFGLWERINDFIARTGNEPNRNSNDAHEVRMAEALNFIRIKVAEQRNSQSNSEAQNN”, the “soluble fraction (log2)” value was -1.39.

“HMSTNDIFISGDKLVLKNTTGQMDVFDMAGRKVLSSTNNVSEMNVSSLPKGVYVVSASIGGSKMKAKVYK”: the “soluble fraction (log2)” value came to 0.0276.

Take “HMSTQGRRIEILRHLTQTKKKADVNFVELGRTFGTSDTTIRKDLDWLIKNEYWENHGEWKPTQAGLNMI”: the “soluble fraction (log2)” value was -0.00179.

As to “HMSTRKAFVNGDGVRLRSGPGTNHSIRASLTKGQTVFVTGTKDGWASVSVQGGASGWVSADLLKYE”, the “soluble fraction (log2)” value stood at 0.237.

Turning to “HMSTRYVRTPAGQAEIQARVFKLSRPVRNLLLVINDSRSIDDWLVQVHGITADDVAMLRAEGLIAEVS”, the “soluble fraction (log2)” value was -0.214.

Consider “HMSTSEQVYTTDKVNVRREADTSSEKLGSLEKGTAISRTGTEGEWSVVNYGGVTGYIKTEFLTTEQPQ”, for which the “soluble fraction (log2)” value is 0.224.

Turning to “HMSTSFQVQVSVLDLRIRKEPTVKGQEVGKISKGIHTITETRSADGYTWGKLESGQGWIALEFTTKLD”, the “soluble fraction (log2)” value was 0.0132.

As to “HMSTSLIEFTIDRNNSIANKMIMDANIPEDILVVMIKRNGDVFVPNGSTKILPGDILVLSGNKLKY”, the “soluble fraction (log2)” value was -0.785.

Consider “HMSTTDGIERFLASGAVKGIGRTMAARIVEHFGSRTLTVMESEPERLTEVAGIGRKKAESIAASYAELS”, for which the “soluble fraction (log2)” value was -0.137.

In the case of “HMSTTYAPYLLGETEQEAIRMARNAGLDPQVVRQSDKSEAGTVILQSHDFGFAMKRGAVILITVSSGPLQ”, the “soluble fraction (log2)” value is -0.0322.

For the sequence “HMSTVTEVHYIAFKNGRIVDIKAALTGSAVTATSIKEQPKIENYNYTTSEVRDGILYHTYAPVA”, the “soluble fraction (log2)” value was determined as 0.195.

For “HMSVADNALSRQAIESRIALFIQNEDPNHPRSDADIQKELAQAGVVISRRAITKYRNHLHIPSASLRRR”, the “soluble fraction (log2)” value was -0.12.

For the sequence “HMSVAPISYSQFESYLEQGKVASVAVGQDTIAGRFTAPVDGKSQFVTTIVNPQILDRIDKSGVEITGV”, the “soluble fraction (log2)” value is -0.175.

In the case of “HMSVAVKAPLQGTVMKVNVKPGDTVTKGAPVAVIEALKMENDVPAPQDGVVASVDVKSGDSVKTDQVLLTL”, the “soluble fraction (log2)” value is -0.00426.

For the sequence “HMSVDAMDEANERKMAKTFNMIVLGGLLKIRPIVSIESVIKALRKTLPERHHHLIPMNEEAIHIGMDII”, the “soluble fraction (log2)” value is -0.288.

“HMSVDDEQLLKIIDDIFQQNPQAVTDAKTDSNAIHFLIGQVMKETKGHADHAISKEIIEKKLS”: the “soluble fraction (log2)” value is -0.726.

Consider “HMSVDEVEALYLKIAEDRLEGKLPDKVSESDLMRRYGLTKAQLGAILQRIVHEGWIERTPGHGWRFLPIL”, for which the “soluble fraction (log2)” value was -0.368.

“HMSVFMIIVLKQHAPQEFVDMLMSSIKAKGVQIDVSKGARKTILGLVGNTSVIDREQIAGYEYVDKVIRV”: the “soluble fraction (log2)” value is -0.289.

Consider “HMSVFTDIYHQADHETKLMLIHEIKIVGDEKEFRLLKSIIDSTSNDLSKEANDALNAIKIRLALSK”, for which the “soluble fraction (log2)” value is -1.25.

Turning to “HMSVFTPLTRSELETFLAPYELGRLLDFQGIAAGSENTNYFISLEKGEYVLTLVERGPVAEMPFFIELLD”, the “soluble fraction (log2)” value is -1.49.

Take “HMSVGDLLENLIRETRAQFSAPPESLGVAEKRRFVALLSQKGGFLLKGAVSRAASVLGVSEQTVYRYLKDS”: the “soluble fraction (log2)” value came out at 0.0671.

Turning to “HMSVGDLPPEAREIWKLLDGRELSLDLLAEETGRETGALLSTLMMLEMKLLVEHGSDMVYRRIPRR”, the “soluble fraction (log2)” value was -1.62.

Consider “HMSVHSAELKKLKAHLLGIIGRELETQPSTENREEMVRQILHQSYESLRLNLPMQLKEELFNEILAEVL”, for which the “soluble fraction (log2)” value is -0.689.

As for “HMSVLEHVSGNVRRLRLQAGLSQEALARAASVSRRMLVGIESGDVNVSLSTLDRIAAALGVLFPDLVQAP”, the “soluble fraction (log2)” value is -0.392.

On to “HMSVLPAREQVAAILRQAILLRKFKEGQDLTLKDAAELVGSSITPVREAFQILENEGLIELRPNKGAVVL”, for which the “soluble fraction (log2)” value is -0.616.

On to “HMSVPEDLYFRELEVEGNKVRISGIASTNNRVSALMRNFDQSEWFRDPSLIKVESKSPGVNEFEIVMTRI”, for which the “soluble fraction (log2)” value was -0.761.

Turning to “HMSVPNVVGRDQVEASSLLESAGFKVSVKQSYSDSVEQGKVISQSPSGSTTVSPGSTVTITVSQ”, the “soluble fraction (log2)” value is -0.155.

Regarding “HMSVPRPSAVEVTSLVTGVRDLLPHLGEGYVERVLVEFGFKVDETINALLEGNLPKHLQDLDPSLTKEI”, the “soluble fraction (log2)” value is -1.25.

Regarding “HMSVPVDEVLAALTQKLTDLRTQAMAAKDFSAVDALKAALTEAGVEVRMSKTGVELIAGPRVDAKKLGTL”, the “soluble fraction (log2)” value was -0.268.

Take “HMSVRPMVEILRVVGSPSPVWVTWARNRAAWLYETGIRPQQRLRMADGTEVLIRLVGEFAHILVVGG”: the “soluble fraction (log2)” value turned out to be 0.0642.

As for “HMSVSATQMDAFVRQLRARLSSADGLDDAARLVRQDLEPFLGRFSDETERDFAAAIEQVRGSIRPVEI”, the “soluble fraction (log2)” value was -1.73.

Turning to “HMSVSEAELAEKYHADDLEALKSGKLHEFQENLIDRNGKKYTVQTMKDILTLSDGTRLLLGIGLD”, the “soluble fraction (log2)” value was -0.0916.

Consider “HMSVTDDQLRVFTNKSGTKIKAKIVEVSDDKVKLIRDDNKKFIVPINSLSEEDQDYLRDWVSNEAVEP”, for which the “soluble fraction (log2)” value was -0.0786.

In the case of “HMSVTIDAGGKVYLQESEIADDQLVPRLVAISNNGYDKPIYLRADKTVGYGRVAEVMSLLNAAGFTKLVLV”, the “soluble fraction (log2)” value is -0.244.

“HMSVTRELMLVKVKVTPEQRAGVSAIVDIFRANIIDVGKESMIIELTGNKSKLEAFIDLLDGYEILELART”: the “soluble fraction (log2)” value was -0.865.

With “HMSVTVPDVKRMQAEDAKALLSRYRLRSEVIDSVYVDNIPRGAVVEQIPRENSSVKENRIVFLTINSN”, the “soluble fraction (log2)” value was -0.546.

On to “HMSVTYRYSYVYNGNTYSDGWSVRRAIENNENKRFGPEPSDLDHEAQKQARVTFWAEHGVEYKEQEVV”, for which the “soluble fraction (log2)” value is -0.423.

Consider “HMSVYIGVDQAKSIAAEHAGLSNSAVTFSKAKLENDDGMTVYEVEFFYQGTEYDYKIDASTGSILEYDLDR”, for which the “soluble fraction (log2)” value was -0.0157.

“HMSWEDSLLKQAREIIDMYPQKRSAVGPLLHLAQSKDGYISDDSISVISKLVGITEVQLKSVSTFYSMYK”: the “soluble fraction (log2)” value was -1.23.

In the case of “HMSWEELLEHLEKAAERGEEVRIAGVTLHDEEDFKRALRWLKEWL”, the “soluble fraction (log2)” value was -1.47.

For “HMSYIGEEKAKSIAVSNVKGAGTNNVVKVEFDYDDGRAVYEVKVVYNAMEYEFEIDASNGKILSRDAESIY”, the “soluble fraction (log2)” value was -0.027.

“HMSYKFDSLAIILNKLDGKETVNVSSLSDELEVSARTVHRYIGTLQVAGFPIEYDKTKNSYIFSEGYTL”: the “soluble fraction (log2)” value is -1.05.

Regarding “HMSYQFKIKNNAAVEVTVSEKNNLLGSTYGDKATVAAGMEKNVTFYTDKPDVVVDTNGNFTITVHDKEIII”, the “soluble fraction (log2)” value was -0.221.

Regarding “HMSYSYIYNYALKVKMDISSTGGKKPYAYYYYDHSYKLAEEILSLSEETESIELQNKYDELKDFYENP”, the “soluble fraction (log2)” value was -1.04.

As to “HMSYTWHDMYLLAQEYQKEHGNLIIPRNYKGKNGLNLGYWLYKEKLKYRQGKLAPEKIIALEHIGIVWT”, the “soluble fraction (log2)” value was 0.22.

On to “HMSYYKEMIRLADSIADKAHEGQTDRNGWPYISHPRRVALGARKLVSEMASSTSPDTSLEELKAEVQIVAL”, for which the “soluble fraction (log2)” value amounted to 0.00833.

As to “HMTAAPEVRVEGLFKGAAVLKIDGQQVMLKKGRSHSSGVTLVDANAHRAIVEIDGQRHELALHMA”, the “soluble fraction (log2)” value is 0.0925.

Regarding “HMTADIRFLNSRKFYIYKVEKGETLFSISQKFNIPQEEIIQFNKDINQQGLKAKTKLWVPAYSWL”, the “soluble fraction (log2)” value was -0.43.

As for “HMTAGTGIAYSEFRSKVQEGQVKDVAIAPDRITGTLSSGQKFSTVPVNDPGLPKMLDDFNVKYSGQA”, the “soluble fraction (log2)” value was 0.22.

Turning to “HMTAIWKTITATLTHDIATGKYAPGDRLPTEAQLAARFGVNRHTVRRAISDMNESGLTYSRRGAGVFVAQ”, the “soluble fraction (log2)” value is ≥ 0.43.

As to “HMTALAVGDRVKMDKSATIYGTMRKFAAWVYATKLYVRGIDGNRVVVSTLKSGAITGAVDKKHLTK”, the “soluble fraction (log2)” value was -0.0515.

On to “HMTAMDTQQKKLIIMYHDIHRLRNVEHFTIQRIADHLLLNFRTVKKFLEMTQEEFDKFSENRW”, for which the “soluble fraction (log2)” value was -0.0481.
